Measurements published in PMC5608764, “Aromatic side-chain conformational switch on the surface of the RNA Recognition Motif enables RNA discrimination”.

Legend:
[1] = molecular target: T1, CUG-BP2 RRM3 wild-type (UniProt O95319 416-508, Y508W); assay: NMR 15N-HSQC titration; 25 C; multiple registers; 20 mM K phosphate pH 5.8, 10 mM NaCl, 0.1% beta-mercaptoethanol, 25 C (NMR titrations and ITC); hnRNP A1: 10 mM Na phosphate pH 6.5, 10 mM beta-mercaptoethanol; settings: protein: recombinant
[2] = molecular target: T2, CUG-BP2 RRM3 F455A (UniProt O95319 416-508, F455A;Y508W); assay: ITC; 25 C; 20 mM K phosphate pH 5.8, 10 mM NaCl, 0.1% beta-mercaptoethanol, 25 C (NMR titrations and ITC); hnRNP A1: 10 mM Na phosphate pH 6.5, 10 mM beta-mercaptoethanol; settings: protein: recombinant; tags: His-tag (pET28a)
T2 sequence (O95319 416-508 F455A/Y508W): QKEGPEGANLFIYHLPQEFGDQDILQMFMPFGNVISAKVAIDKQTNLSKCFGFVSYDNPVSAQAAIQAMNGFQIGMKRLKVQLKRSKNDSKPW

[3] = molecular target: T3, CUG-BP2 RRM3 Y428A (UniProt O95319 416-508, Y428A;Y508W); assay: as above; settings: protein: recombinant; tags: His-tag (pET28a)
T3 sequence (O95319 416-508 Y428A/Y508W): as the sequence (O95319 416-508 F455A/Y508W) above, with Y13A, A40F counted along it

[4] = molecular target: T4, CUG-BP2 RRM3 H429A (UniProt O95319 416-508, H429A;Y508W); assay: as above; settings: protein: recombinant; tags: His-tag (pET28a)
T4 sequence (O95319 416-508 H429A/Y508W): as the sequence (O95319 416-508 F455A/Y508W) above, with H14A, A40F counted along it

[5] = molecular target: T1, CUG-BP2 RRM3 wild-type; assay: as above; settings: protein: recombinant
[6] = molecular target: T1, CUG-BP2 RRM3 wild-type; assay: NMR 15N-HSQC titration; 20 mM K phosphate pH 5.8, 10 mM NaCl, 0.1% beta-mercaptoethanol, 25 C (NMR titrations and ITC); hnRNP A1: 10 mM Na phosphate pH 6.5, 10 mM beta-mercaptoethanol; settings: protein: recombinant
[7] = molecular target: CUG-BP2 RRM3 Q497A (UniProt O95319 416-508, Q497A;Y508W); assay: as above; settings: protein: recombinant; tags: His-tag (pET28a)
CUG-BP2 RRM3 Q497A, sequence (O95319 416-508 Q497A/Y508W): as the sequence (O95319 416-508 F455A/Y508W) above, with A40F, Q82A counted along it

[8] = molecular target: T2, CUG-BP2 RRM3 F455A; assay: as above; settings: protein: recombinant; tags: His-tag (pET28a)
[9] = molecular target: T3, CUG-BP2 RRM3 Y428A; assay: as above; settings: protein: recombinant; tags: His-tag (pET28a)
[10] = molecular target: T4, CUG-BP2 RRM3 H429A; assay: as above; settings: protein: recombinant; tags: His-tag (pET28a)
[11] = molecular target: CUG-BP2 RRM3 K495A (UniProt O95319 416-508, K495A;Y508W); assay: as above; settings: protein: recombinant; tags: His-tag (pET28a)
CUG-BP2 RRM3 K495A, sequence (O95319 416-508 K495A/Y508W): as the sequence (O95319 416-508 F455A/Y508W) above, with A40F, K80A counted along it

[12] = molecular target: CUG-BP2 RRM3 K453A (UniProt O95319 416-508, K453A;Y508W); assay: as above; settings: protein: recombinant; tags: His-tag (pET28a)
CUG-BP2 RRM3 K453A, sequence (O95319 416-508 K453A/Y508W): as the sequence (O95319 416-508 F455A/Y508W) above, with K38A, A40F counted along it

[13] = molecular target: CUG-BP2 RRM3 F426A (UniProt O95319 416-508, F426A;Y508W); assay: as above; settings: protein: recombinant; tags: His-tag (pET28a)
CUG-BP2 RRM3 F426A, sequence (O95319 416-508 F426A/Y508W): as the sequence (O95319 416-508 F455A/Y508W) above, with F11A, A40F counted along it

[14] = molecular target: CUG-BP2 RRM3 K499A (UniProt O95319 416-508, K499A;Y508W); assay: as above; settings: protein: recombinant; tags: His-tag (pET28a)
CUG-BP2 RRM3 K499A, sequence (O95319 416-508 K499A/Y508W): as the sequence (O95319 416-508 F455A/Y508W) above, with A40F, K84A counted along it

[15] = molecular target: T1, CUG-BP2 RRM3 wild-type; assay: NMR 15N-HSQC titration; 25 C; RNA variant series; 20 mM K phosphate pH 5.8, 10 mM NaCl, 0.1% beta-mercaptoethanol, 25 C (NMR titrations and ITC); hnRNP A1: 10 mM Na phosphate pH 6.5, 10 mM beta-mercaptoethanol; settings: protein: recombinant
[16] = molecular target: T1, CUG-BP2 RRM3 wild-type; assay: ITC; 20 mM K phosphate pH 5.8, 10 mM NaCl, 0.1% beta-mercaptoethanol, 25 C (NMR titrations and ITC); hnRNP A1: 10 mM Na phosphate pH 6.5, 10 mM beta-mercaptoethanol; settings: protein: recombinant
[17] = molecular target: T1, CUG-BP2 RRM3 wild-type; assay: NMR 15N-HSQC titration; protein mutant series; 20 mM K phosphate pH 5.8, 10 mM NaCl, 0.1% beta-mercaptoethanol, 25 C (NMR titrations and ITC); hnRNP A1: 10 mM Na phosphate pH 6.5, 10 mM beta-mercaptoethanol; settings: protein: recombinant

T1 sequence (O95319 416-508 Y508W): as the sequence (O95319 416-508 F455A/Y508W) above, with A40F counted along it

AUUUAAUU (ssRNA)
Kd [1]: 31 ± 9 µM

UGUGU (ssRNA)
Kd [2]: 10.4 ± 0.87 µM
Kd [3]: 0.31 ± 0.01 µM
Kd [4]: 0.27 ± 0.05 µM
Kd [5]: 1.04 ± 0.04 µM

UUUCA (ssRNA)
Kd [6]: 73 ± 13 µM

UUCAA (ssRNA)
Kd [6]: 56 ± 12 µM

CUUAA (ssRNA)
Kd [6]: 54 ± 9 µM

UUUAA (ssRNA)
Kd [7]: 60 ± 10 µM
Kd [8]: 41 ± 5 µM
Kd [9]: 27 ± 3 µM
Kd [10]: 30 ± 4 µM
Kd [11]: 63 ± 6 µM
Kd [12]: 78 ± 13 µM
Kd [13]: 139 ± 10 µM
Kd [14]: 91 ± 18 µM
Kd [15]: 66 ± 14 µM
Kd [16]: 18 µM
Kd [17]: 62 ± 12 µM

UCUAA (ssRNA)
Kd [6]: 76 ± 27 µM

UUUAC (ssRNA)
Kd [6]: 56 ± 8 µM
